# Assay: yeast display, Sf9 membrane polyspecificity reagent, FACS + sequencing; frameworks hold sequencing errors
# Method in brief: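 Using colony PCR, genes from sorted yeast display clones were amplified, then sequenced on MiSeq at 2 × 250 and filtered by CDR length. The clones had been stained with 10% biotinylated, detergent-solubilized Sf9 membrane reagent for 1 hour at 4 °C and sorted by FACS into low and high (top ~1%) gates on anti-HA and streptavidin fluorescence. Polyreactivity labels come from the gate of origin.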
row,Sequence,polyreactivity (PSR sort gate)
1,QVQLVESGGGLVQAGGSLRLSCAASGFIFRLYAMGWYRQAPGKERELVAAITWSGGSTYYADSVKGRFTISRDNAKNTVYLQMNSLKPEDTAVYYCAAYATKNAFEYWGQGTQVTVSS,high polyreactivity
2,QVQLVESGGGLVQAGGSLRLSCAASGFIFRNYAMGWYRQAPGKERELVAAIDSSGGSTYYADSVKGRFTISRDNAKNTVYLQMNSLKPEDTAVYYCAAESYYYQYEYWGQGTQVTVSS,high polyreactivity
3,QVQLVESGGGLVQAGGSLRLSCAASGFIFRRNAMGWYRQAPGKERELVAAISAGGTSTYYADSVKGRFTISRDNAKNTVYLQMNSLKPEDTAVYYCNKAYYYDAEYDYWGQGTQVTVSS,high polyreactivity
4,QVQLVESGGGLVQAGGSLRLSCAASGFIFRRNAMGWYRQAPGKERELVAAISRTGGSTYYADCVKGRFTISRDNAKNTDYLQMNSLKPEDTAVYYCARYGLVYALGYWGQGTQVTVSS,high polyreactivity
5,QVQLVESGGGLVQAGGSLRLSCAASGFIFRRYALGWYRQAPGKERELVAAISWGGTSTYYADSVKGRFTISRDNAKNTVYLQMNSLKPVDTAGYYCAADRSVRTRGGFDYWGQGTQVTVSS,high polyreactivity
6,QVQLVESGGGLVQAGGSLRLSCAASGFIFRRYAMGWYRQAPGKERELVAAIRSDGSTNYADSVKGRFTISRDNAKNTVYLQMNSLKPEDTAVYDCAATYYSYTWFSQYYYWGQGTQVTVSS,high polyreactivity
7,QVQLVESGGGLVQAGGSLRLSCAASGFIFRRYAMGWYRQAPGKERELVAAITSSGTSTYYADSVKGRFTISRDNAKNTVYLQMNSLKPEDTAVYYCNAAQYYERFNHWGQGTQVTVSS,high polyreactivity
8,QVQLVESGGGLVQAGGSLRLSCAASGFIFRRYVMGWYRQAPGKERELVAAISYGGGSTYYADSVKGRFTISRDNAKNTVYLQMNSLKPEDTAVYYCAARVYYDAYDYWGQGTQVTVSS,high polyreactivity
9,QVQLVESGGGLVQAGGSLRLSCAASGFIFRSYAMGWYRQAPGKERELVAAINSRAGNTYYADSVKGRFTISRDNAKNTVYLQINSLKPEDNAVYYCNAVRHTYGYYSWGQGTQVTVSS,high polyreactivity
10,QVQLVESGGGLVQAGGSLRLSCAASGFIFRTYAMGWYRQAPRKERELVAAITYSAGSTYYADSVKGRFTISRDNAKNTVYLQMNSLKPEDTAVYYCNVRKTWYGYSVTGRYDYWGQGTQVTVSS,low polyreactivity
11,QVQLVESGGGLVQAGGSLRLSCAASGFIFRWYAMGWYRQAPGKERELVAANSSGSSTTYADSVKGRFTISRDNAKNTVYLQMNSLKPEDTAVYYCNRGPRIYRYQYDYWGQGTQVTVSS,high polyreactivity
12,QVQLVESGGGLVQAGGSLRLSCAASGFIFRWYAMGWYRQAPGKERELVASIDSSGTRTYYADSVKGRFTISRDNAKNTVYLQMNSLKPEDTAVYYCNAEPSSLGETDYDYWGQGTQVTVSS,low polyreactivity
13,QVQLVESGGGLVQAGGSLRLSCAASGFIFRWYTMGWYRQAPGKERELVAAISSSGGTTYYADSVKGRFTISRDNAKNTVYLQMNSLKPEDTAVYYCTTRYPLGGTYTRYPLKGDYWGQGTQVTVSS,high polyreactivity
14,QVQLVESGGGLVQAGGSLRLSCAASGFIFRYFAMGWYRQAPGKERELVAAISRSGGSTYYADSVKGRFTISRDNAKNTVYLQMNSLKPEDTAVYYCAAKDGRSYYDLSPMDYWGQGSQVTVSS,low polyreactivity
15,QVQLVESGGGLVQAGGSLRLSCAASGFIFRYNAMGWNRQAPGKERELVARINSGVSTNYADSVKGRFTISRDNAKNTVYLQMNSLKPEDTAVYYCNARVRRGYSRFDYWGQGTQVTVSS,high polyreactivity
16,QVQLVESGGGLVQAGGSLRLSCAASGFIFRYNAMGWYRQAPGKERELVAAISSGGSTNYADSVKGRFTISRDNAKNTVYLQMNSLKPEDTAVYYCAADVEQYYPLLTFDFWGQGTQVTVSS,low polyreactivity
17,QVQLVESGGGLVQAGGSLRLSCAASGFIFRYNAMGWYRQAPGKERELVAAISSSGGSTYYADSVKGRFTISRDNAKNTVYVQMNSLKPEDTAVDYCNAYNYGYIGYGYNYWGQGTQVTVSS,high polyreactivity
18,QVQLVESGGGLVQAGGSLRLSCAASGFIFRYNAMGWYRQAPGKERELVASISYSGARTYYADSVKGRFTISRDNEKNTVYLQMNSLKPEDTAVYYCATGPLSYVRYYYWGQGTQVTVSS,low polyreactivity
19,QVQLVESGGGLVQAGGSLRLSCAASGFIFRYNTMGWYRQPPGKERELVAAISVSGARTYYADSVKGRFTLSRDNAKNTVYLQMNSLKPEDTAVYYCNRRYPLYSRYNNDYWGQGTQVTVSS,high polyreactivity
20,QVQLVESGGGLVQAGGSLRLSCAASGFIFRYYAKGWYREAPGKERELVAAITSGGASTYYADSVKGRFRISRDNAKNTVYLQMNSLKPEDTPVYYCAADTSSYSEYDYWGQGTQVTVSS,low polyreactivity
21,QVQLVESGGGLVQAGGSLRLSCAASGFIFRYYAMGWYIQAPWKERELVAAIRRGRSTYYADSVKGRFTISRDNAKYTVYLQMNSLKPEDTAVDYCAVRLVSRFGISSYDYWGQGTQVTVSS,high polyreactivity
22,QVQLVESGGGLVQAGGSLRLSCAASGFIFRYYAMGWYRPAPGKERELVATISSGGGTHYADSVKGRFTISRDNAKNTVYLQMNSLKPEDAAVYYCNARGYRRLRTRVDYWGQGTQVTVSS,high polyreactivity

row,Sequence,polyreactivity (PSR sort gate)
1,QVQLVESGGGLVQAGGSLRLSCAASGFIFRYYAMGWYRQAPGKERELVAAISGSGGSTYYADSVKGRFTISRDNAKNTVYLQMNSLKPEDTAVYYCNKGRGRVYGIYDYWGQGTQVTVSS,high polyreactivity
2,QVQLVESGGGLVQAGGSLRLSCAASGFIFRYYAMGWYRQAPGKERELVAAISNNAGRTYYADSVKGRFTISRDNAKNTVYLQMNSLKPEDTAVYYCAARVWTGRKYDYWGQGTQVTVSS,high polyreactivity
3,QVQLVESGGGLVQAGGSLRLSCAASGFIFRYYAMGWYRQAPGKERELVAAISWSGGSTYYADSVKGRFTISRDNAKNTVYLQMNSLKPEDTAVYYCNAVTTYGEYDYWGHGTQVTVSS,high polyreactivity
4,QVQLVESGGGLVQAGGSLRLSCAASGFIFRYYAMGWYRQAPGKERELVAAISWSGTRTFYADSVKGRFTISRDNAKNTVYLQMNSLKPEDTAVYYCAAETTGYDSYIQYEYWGQGTQVTVSS,high polyreactivity
5,QVQLVESGGGLVQAGGSLRLSCAASGFIFRYYAMGWYRQAPGKERELVAAITRGGSTYYADSVKGRFTISRDNAKNTVYLQMNSLKPEDTAVYYCAARLYTQYYYWGQGTQVTVSS,high polyreactivity
6,QVQLVESGGGLVQAGGSLRLSCAASGFIFRYYAMGWYRQAPGKERELVAGISSSGASTYYADSVKGRFTISRDNAKYTVYLLMNSLKPEDTAVYYCAARRQRDRYGYWGQGTQVTVSS,high polyreactivity
7,QVQLVESGGGLVQAGGSLRLSCAASGFIFRYYAMGWYRQAPGKERELVARINRSGGSTYYADSVKGRFTISRDNAKNTVYLQMNSLKPEDTAVYYCAKDRTSYYSWYGYWGQGTQVTVSS,high polyreactivity
8,QVQLVESGGGLVQAGGSLRLSCAASGFIFRYYAMGWYRQAPGKERVLVARITPRGGRTYYADSVKGRFTISRDNAKNTVYLQMNSLKPEDTAVYYCAAVYPVLHEFGYWGQGTQVTVSS,high polyreactivity
9,QVQLVESGGGLVQAGGSLRLSCAASGFIFRYYAMGWYRQAPGKETELVAAINRGGGTNYADSVKGRFTISRDNAKNTVYLQLNSLKPEDTAVYYCAAVIRTVRERYGYWGQGTQVTVSS,high polyreactivity
10,QVQLVESGGGLVQAGGSLRLSCAASGFIFRYYDMGWYRQAPGKERELVAAISWRGGRTYYADSVKGRFTISRDNAKNTVYLQMNSLKPEDTAVYYCAAGFSLWTYPKPYGEDYWGQGTQVTVSS,high polyreactivity
11,QVQLVESGGGLVQAGGSLRLSCAASGFIFRYYTMRWYRQAPGKERELVAVITSGGTTYYADSVKGRFTISRDNAMNTVYLQMNSLKPEDTAVSYCAADYRPRLYGVGVDYWGQGTQVTVSS,low polyreactivity
12,QVQLVESGGGLVQAGGSLRLSCAASGFIFSDYAMGWYRQAPGKERELVAGISDSGGDTYYADSVKGRFTISRDNAKYTVYFQMYSLKPDDTAVYYCAADVELWVFRGQQYDYWGQGTQVTVSS,low polyreactivity
13,QVQLVESGGGLVQAGGSLRLSCAASGFIFSFYAMGWYRQAPGKESELVAAITSSGATTYYADSVKGRFTISRDNAKNTVYLQMNSLKPVDTAVYYCNAVYRRDTGYYRYYYWGQGTQVTVSS,high polyreactivity
14,QVQLVESGGGLVQAGGSLRLSCAASGFIFSIYALGWYRQAPGKERELVAAISKSGGRTYYADSVKGRFTISRDNAKNTVYLQMNSLKPEDTAVYYCAVDSYYKYDYWGQGTQVTVSS,high polyreactivity
15,QVQLVESGGGLVQAGGSLRLSCAASGFIFSIYAMGLYRQAPGTERELVAGIDNGGGTYYADSVKGRFTISRDNAKNTVYLQMNSLKPEDTAVYYCAADTYSIGELYDYWGQGTQVNVSS,low polyreactivity
16,QVQLVESGGGLVQAGGSLRLSCAASGFIFSKNAMGWYRQAPGKERELVAAISTRGGSTYYADSVKGRFTISRDNAKNTVYLQMNSLKPEDTAVYYCNKEWYPYKHNYWGQGTQVTVSS,low polyreactivity
17,QVQLVESGGGLVQAGGSLRLSCAASGFIFSNNAMGWYRQAPGKERELVASISSSSRTYYADSVKGRFTISRDNAKNTVYLQMNSLKPEDTAVYYCAAVFRWWGTRVDYWGQGTQVTVSS,high polyreactivity
18,QVQLVESGGGLVQAGGSLRLSCAASGFIFSNYAMGWYRQAPGKERELVAAISWSGTRTYYADSVKGRFTISRDNAKNTVYLQMNSLKPEDTAVYYCAAYGVYLYDYWGQGTQVTVSS,low polyreactivity
19,QVQLVESGGGLVQAGGSLRLSCAASGFIFSQYAMGWYRQAPGKERELVAAISYSGGSTYYADSVKGRFTISRDNAKNTVYLQMNSLKPEDTAVYYCAVSGRSYYRSDYWGQGTQVTVSS,high polyreactivity
20,QVQLVESGGGLVQAGGSLRLSCAASGFIFSRNAMGWYRQAPGKERELVAVISTRGGSTYYADSVKGRFTISRDNAKNTVYLQMNSLKPEDTAVYYCAARRTRGYEYWGQGTQVTVSS,high polyreactivity
21,QVQLVESGGGLVQAGGSLRLSCAASGFIFSRNAMGWYRQAPGKERELVDRISRSGGRTYYADSVKGRFTISRDNAKNTVYLQMNSLKPEDTAVYYCATDHVRQSPYDYWGQGTQVTVSS,high polyreactivity

# — the nanobody polyreactivity screen of Harvey et al. (2022)
